Data from IntAct's records for PubMed 28436967.

B1: Katanin p60 ATPase-containing subunit A1 (Mus musculus), Q9WV86 (parent)
chain: MSLQMIVENVKLAREYALLGNYDSAMVYYQGVLDQMNKYLYSVKDTHLRQKWQQVWQEINVEAKQVKDIMKTLESFKLDITSLQAAQHELPAAEGEVWSLPVPVERRPLPGPRKRQSSQHSDPKPHSNRPSTVVRAHRPSPQNLHNDRGKAVRSREKKEQSKGREEKNKLPAAVTEPEANKFDGTGYDKDLVEALERDIISQNPNVRWYDIADLVEAKKLLQEAVVLPMWMPEFFKGIRRPWKGVLMVGPPGTGKTLLAKAVATECKTTFFNVSSSTLTSKYRGESEKLVRLLFEMARFYSPATIFIDEIDSICSRRGTSEEHEASRRMKAELLVQMDGVGGASENDDPSKMVMVLAATNFPWDIDEALRRRLEKRIYIPLPSAKGREELLRISLRELELADDVNLASIAENMEGYSGADITNVCRDASLMAMRRRIEGLTPEEIRNLSREAMHMPTTMEDFEMALKKISKSVSAADIERYEKWIVEFGSC

Variants of: B1
Conditions: with ktnb1_mouse Katnb1, Q8BG40
Sequence of ktnb1_mouse Katnb1, Q8BG40 (Q8BG40 whole entry): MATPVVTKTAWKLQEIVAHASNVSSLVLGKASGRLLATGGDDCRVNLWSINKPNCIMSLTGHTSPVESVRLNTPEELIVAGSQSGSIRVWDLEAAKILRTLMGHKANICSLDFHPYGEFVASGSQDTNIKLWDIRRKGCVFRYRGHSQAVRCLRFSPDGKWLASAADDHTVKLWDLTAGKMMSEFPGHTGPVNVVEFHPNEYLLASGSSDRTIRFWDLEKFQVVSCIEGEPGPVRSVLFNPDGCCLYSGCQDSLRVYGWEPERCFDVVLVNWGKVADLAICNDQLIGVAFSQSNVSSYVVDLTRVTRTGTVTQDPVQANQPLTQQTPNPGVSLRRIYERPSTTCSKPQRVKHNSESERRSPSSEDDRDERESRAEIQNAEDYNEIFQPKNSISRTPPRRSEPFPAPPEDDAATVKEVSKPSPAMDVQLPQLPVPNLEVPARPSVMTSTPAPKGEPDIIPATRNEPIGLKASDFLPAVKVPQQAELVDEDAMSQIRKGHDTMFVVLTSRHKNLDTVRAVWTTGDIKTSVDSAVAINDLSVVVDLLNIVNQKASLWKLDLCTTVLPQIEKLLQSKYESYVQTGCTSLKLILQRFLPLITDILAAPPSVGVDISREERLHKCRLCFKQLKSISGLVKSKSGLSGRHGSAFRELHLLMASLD

Row | Variant | effect of a mutation on the interaction
1 | L19A | with no effect
2 | L18A | with no effect
